# Source: the DeepSol protein solubility set
# Experiment: soluble on expression in E. coli; label from the status in PepcDB or PDB records
row,Sequence,soluble on expression in E. coli
1,MIKLENELLLVEMKEAGAELTRIFHKDTKLEYLWNADSTFWGRHSPVLFPTVGRLVEDTYFVDGNPYHLGQHGFARDRDFKVVEHTENAVRFELDADEDSLTIYPYKFKLSIIYTIEKDSVAVSYEVENTDNKRIYFSIGAHPAFNLPLADGTTFEDYYLDFGTEENLETLCLEGPYRSGKIEKVVNEPARYLPLSYDLFKNDALIFEGLKQKEITIKSDKTPHFVKVSFPEFPFVGVWTAKAGTPFLCIEPWYGIADGAGKSVELRDKAGIEHLEPEAVFASEYKITIGLEHHHHHH,not soluble
2,MIKMIDQYQAFTQSPIGKFVVKNLGLPSPVVLDRFESGQPVIKGAVLMGAAPSSSLTSGIAQVLSNIHADSYAGNNAEIQQAAAQVGLNLRAFNSGDKESKFKAVVFDASGIQNSEQLDELYKFFNPIVRQIESSGRVIVLGTSPESAKTVKQAIAQRALEGFIKSVGKEFKKGITAQVVYVDEGAVNNIESTLRFLLSPRSAYVSGQVIRVSKAEVVQVDWDKPLAGKTALVTGASRGIGEAIAHVLARDGAHVICLDVPQQQVDLDRVASEIGGSALGLDITAADAGEKIKAAAAKQGGLDIIVHNAGITRDKTLANMKSELWDLVININLSAAERINDYLLANDGLNTNGRIVCVSSISGIAGNLGQTNYAVSKAGVIGLVKFTAPILKNGITINAVAPGFIETQMTAAIPFAIREAGRRMNSMNQGGLPVDVAETISWFAATGSTGINGNVVRVCGQSLLGALEHHHHHH,soluble
3,MIKNRQEILFLYDVTDANPNGDPLDENKPRIDEETGINIVTDVRLKRTIRDYLYDYKGFDGSNGKDIFVREIESEKGGIKDGKARAKDFNENVDEILQKAIDIRLFGGVIPLDKASITFTGPVQFNMGRSLNKVNLKHIKGTGAFASGEGKAQKTFREEYIVPYSIIAFHGIINENAAKRTGLTDEDVDLLDDAMWNGTKNLITRSKMGHMPRLMLRVVYKPGENFFIGDLQNRISLNFDVEEEKIRSIKDFSIKLDELIDELANYGDKIEKVVFVADKNLRLSYKGREINLKDIKDIRFEEKTF,soluble
4,MIKWGFIGCGEVTKTKSGPAFQKVEHSEVVAVMSRDGAKAKAYAKERGIRKWYDDAQELIDDPEVNAIYIATPPSSHATYAIMAMKAGKPAYIEKPMAVTYEECTRINRISKETGVPCFVAYYRRYLPYFQKVKEMVENGSIGNVINVQVRFAQPPRDLDYNRENLPWRVQADIAGGGYFYDLAPHQIDLLQDMFGCILEASGYKSNRGGLYPAEDTLSACFQFDNGLVGSGSWCFVAHDSAREDRIEIIGDKGMICFSVFTYEPIGLHTERGREEICIGNPEHVQQPLIQAVVDHLLGKSVCSCDGESATLTNWVMDKILGKL,not soluble
5,MIKYSIRGENIEVTEAIREYVETKLSKVEKYFNEAQELDTRVNLKVYREKTAKVEVTILIDSITLRAEDVSQDMYGSIDLVVDKIERQIRKNKTKIAKKYREKIPASQVFTTEFEAEPDEEAVSQRIVRTKNVNLKPMDVEEALLQMELLGHDFFIYTDAEDNTTNVLYKREDGELGLIEAKGNLEHHHHHH,soluble
6,MILAIFSLRLLLIPTIDEPESIVTQLENAIDPVTQVPDFSAITDVAEKKRAFFDFLRPIVQQQNAIIASEREFITDMLAIVENGNALSDSQSAQLNQIFDKYLYAARNVDAKSLNSLLKRVDIIPESMVLIQAANESGWGSSRFAREGFNFFGEWCFSNGCGIVPSSRGSGKTHEVKIFPSVDASVSSYMRNLNSNTAYNLFRSIRADLRAQEAELNADQLIYGLVNYSERQEAYIDELLDMLRHNAKYLVKADV,soluble
